Data reported in the supplement of paper PMC12338614.
± gives the uncertainty stated by the source.

B1: library; numbered along this chain (parent)
chain: MEVVDPQQLGMFTEGELMSVGMDTFIHRIDSTEVIYQPRRKRAKLIGKYLMGDLLGEGSYGKVKEVLDSETLCRRAVKILKKKKLRRIPNGEANVKKEIQLLRRLRHKNVIQLVDVLYNEEKQKMYMVMEYCVCGMQEMLDSVPEKRFPVCQAHGYFCQLIDGLEYLHSQGIVHKDIKPGNLLLTTGGTLKISDLGVAEALHPFAADDTCRTSQGSPAFQPPEIANGLDTFSGFKVDIWSAGVTLYNITTGLYPFEGDNIYKLFENIGKGSYAIPGDCGPPLSDLLKGMLEYEPAKRFSIRQIRQHSWFRKKHPPAEAPVPIPPSPDTKDRWRSMTVVPYLEDLHGADEDEDLFDIEDDIIYTQDFTVPGQVPEEEASHNGQRRGLPKAVCMNGTEAAQLSTKSRAEGRAPNPARKACSASSKIRRLSACKQQ

Variants of: B1
Assay: STK11 functional score (HeLa growth suppression), rescaled enrichment; synonymous median = 1, nonsense median = 0 (normalised score)
Conditions: with HeLa; variant type: missense
Method in brief: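 Codon-randomised (POPCode) libraries of codon-optimised STK11 were integrated by Bxb1 at an AAVS1 landing pad in HeLa, in three regions each transfected three times. Integrants (BFP-negative, mCherry-positive) were FACS-sorted 4–5 days after electroporation and grown about two weeks; tiled gDNA amplicons were sequenced on NextSeq (~2 million reads per tile). The functional score is the wild-type-corrected post/pre-selection log ratio, rescaled to synonymous and nonsense medians, merged over codons and replicate transfections, with bootstrapped error.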

Row | Variant | STK11 functional score
1 | G394I | 1.51 ± 0.21
2 | G394E | 1.26 ± 0.23
3 | G394Y | 1.38 ± 0.13
4 | D352P | 1.6 ± 0.14
5 | V236F | 1.21 ± 0.17
6 | P323H | 1.42 ± 0.2
7 | P323L | 0.92 ± 0.24
8 | P323D | 1.33 ± 0.44
9 | K96Q | 0.724 ± 0.15
10 | K96W | 0.729 ± 0.42
11 | T328N | 0.554 ± 0.47
12 | P326L | 1.34 ± 0.16
13 | D68G | 1.08 ± 0.45
14 | A414K | 1.55 ± 0.26
15 | A205G | 0.712 ± 0.3
16 | T71L | 0.974 ± 0.12
17 | T71F | 1.17 ± 0.47
18 | T71W | 1.13 ± 0.14
19 | V4P | 1.03 ± 0.13
20 | I46S | 0.762 ± 0.1
21 | I46G | 0.857 ± 0.11
22 | E121L | 1.43 ± 0.23
23 | M129G | 0.986 ± 0.11
24 | M129N | 0.571 ± 0.13

Row | Variant | STK11 functional score
25 | V390A | 1.51 ± 0.31
26 | C134I | 1.42 ± 0.084
27 | N226A | 1.61 ± 0.19
28 | T185I | 0.548 ± 0.088
29 | P89I | 1.41 ± 0.25
30 | Y362P | 1.58 ± 0.14
31 | Y362S | 1.25 ± 0.19
32 | P217G | 1.53 ± 0.18
33 | K287S | 0.94 ± 0.2
34 | S193K | 0.0789 ± 0.12
35 | L80M | 0.45 ± 0.67
36 | R384L | 1.43 ± 0.15
37 | R384D | 1.2 ± 0.15
38 | F148M | 1.3 ± 0.082
39 | F148G | -0.0254 ± 0.081
40 | A295S | 1.44 ± 0.16
41 | L9Y | 1.56 ± 0.37
42 | L9S | 1.37 ± 0.19
43 | L9V | 0.506 ± 0.58
44 | R106Y | 1.64 ± 0.16
45 | G187T | 1.59 ± 0.4
46 | M136R | -0.124 ± 0.086
47 | S213A | 1.38 ± 0.49
48 | S213H | 1.68 ± 0.18

Row | Variant | STK11 functional score
49 | S213F | 1.35 ± 0.41
50 | A389K | 1.61 ± 0.17
51 | A389V | 0.744 ± 0.54
52 | L160F | 0.36 ± 0.21
53 | T336N | 0.774 ± 0.2
54 | T336K | 1.54 ± 0.18
55 | Y166I | 1.21 ± 0.56
56 | L353I | 1.19 ± 0.15
57 | R75N | -0.061 ± 0.19
58 | G61L | 0.588 ± 0.27
59 | G61M | 0.0916 ± 0.085
60 | G233N | 1.19 ± 0.26
61 | G233Q | 1.62 ± 0.24
62 | N90T | 0.558 ± 0.27
63 | P281C | 0.746 ± 0.32
64 | P281W | 0.551 ± 0.072
65 | P281D | 1.45 ± 0.3
66 | K81I | 1.19 ± 0.12
67 | K81V | 0.987 ± 0.11
68 | K81P | 0.992 ± 0.18
69 | K81Q | 0.882 ± 0.35
70 | K48D | 1.34 ± 0.081
71 | N259C | 1.12 ± 0.42
72 | E357G | 1.47 ± 0.23

Row | Variant | STK11 functional score
73 | E357V | 1.33 ± 0.25
74 | R426C | 1.12 ± 0.4
75 | Q7W | 1.1 ± 0.13
76 | G58E | 1.04 ± 0.23
77 | G288C | 0.989 ± 0.45
78 | G288P | 0.0262 ± 0.088
79 | G288S | 0.938 ± 0.2
80 | G288I | -0.0856 ± 0.36
81 | L167C | 1.13 ± 0.77
82 | L167E | -0.113 ± 0.12
83 | G370S | 1.52 ± 0.23
84 | G370Q | 1.55 ± 0.18
85 | G370P | 1.59 ± 0.27
86 | R40F | 1.3 ± 0.15
87 | L228M | 0.601 ± 0.32
88 | V243E | 0.204 ± 0.47
89 | R297T | -0.0209 ± 0.12
90 | K44F | 1.34 ± 0.26
91 | D348G | 1.26 ± 0.17
92 | A397R | 1.46 ± 0.33
93 | K191R | 1.42 ± 0.19
94 | M18S | 1.31 ± 0.14
95 | S325H | 1.54 ± 0.32
96 | H168M | 0.519 ± 0.14

Row | Variant | STK11 functional score
97 | W308C | -0.11 ± 0.088
98 | S169H | 1.43 ± 0.33
99 | Y253F | 0.587 ± 0.17
100 | V143H | 1.44 ± 0.18
101 | E70P | -0.12 ± 0.11
102 | K235A | 1.65 ± 0.24
103 | K235I | 1.06 ± 0.65
104 | K235Q | 1.58 ± 0.35
105 | F234S | 1.1 ± 0.2
106 | L400E | 1.58 ± 0.21
107 | L400S | 1.07 ± 0.21
108 | D284W | 0.576 ± 0.1
109 | N266R | 1.3 ± 0.14
110 | L101Q | 0.894 ± 1
111 | L101W | -0.0513 ± 0.12
112 | L101P | 0.045 ± 0.083
113 | V338Q | 1.54 ± 0.14
114 | T250L | 1.45 ± 0.1
115 | A153L | 0.0918 ± 0.087
116 | T24P | 1.65 ± 0.26
117 | T24V | 0.875 ± 0.17
118 | T24L | 1.18 ± 0.13
119 | D194G | -0.36 ± 0.095
120 | D194Y | -0.089 ± 0.093

Row | Variant | STK11 functional score
121 | D194C | -0.228 ± 0.094
122 | F366E | 1.6 ± 0.14
123 | E317M | 0.316 ± 0.21
124 | E317D | 1.57 ± 0.34
125 | E317S | 0.661 ± 0.31
126 | E317V | 1.36 ± 0.11
127 | F231Y | 0.865 ± 0.35
128 | Q152C | 1.26 ± 0.19
129 | E199A | 1.44 ± 0.23
130 | D30W | 1.3 ± 0.58
131 | T209P | 1.27 ± 0.3
132 | T209C | 1.12 ± 0.13
133 | Y36I | 1.03 ± 0.17
134 | Y36S | 0.558 ± 0.26
135 | Y36H | 1.39 ± 0.48
136 | M125D | 0.704 ± 0.082
137 | M125V | 0.78 ± 0.12
138 | M125H | 0.857 ± 0.64
139 | G171R | 1.24 ± 0.38
140 | G171V | 1.25 ± 0.26
141 | K262V | 1.29 ± 0.3
142 | K262G | 1.35 ± 0.21
143 | G251T | 1.21 ± 0.25
144 | G251A | 0.598 ± 0.42

Row | Variant | STK11 functional score
145 | Q364C | 1.28 ± 0.32
146 | A218H | 0.853 ± 0.69
147 | Q137V | 1.27 ± 0.12
148 | N109S | 0.492 ± 0.18
149 | F219R | 0.1 ± 0.098
150 | R425P | 1.51 ± 0.24
151 | W332M | 1.42 ± 0.27
152 | C151V | 1.17 ± 0.39
153 | C151A | 1.4 ± 0.25
154 | V197W | 1.25 ± 0.19
155 | D358C | 1.53 ± 0.14
156 | P315S | 1.41 ± 0.14
157 | A347W | 1.59 ± 0.16
158 | F309S | 0.538 ± 0.12
159 | P321M | 1.61 ± 0.27
160 | P321W | 1.6 ± 0.15
161 | P321H | 1.21 ± 0.32
162 | P321I | 1.53 ± 0.16
163 | F298V | 0.839 ± 0.14
164 | F298G | -0.228 ± 0.09
165 | S232A | 1.04 ± 0.22
166 | G227L | 0.694 ± 0.15
167 | A200I | 1.31 ± 0.23
